The record followed here is PMC12048575, “Structure of the complex of C1q-like 3 protein with adhesion-GPCR BAI3” (Communications Biology, 2025).

The test concerns the target T1, Mouse BAI3 N-terminal domain (NTD) encompassing residues 26-290 (mouse, UniProt Q80ZF8 26-290).
T1 construct: The vector encodes a 3C site, an Fc-tag and a C-terminal His tag after the NTD; the His tag lies after the 3C site and so was probably removed with the Fc; also called BAI3 NTD; BAI3 CUB domain; source: HEK293S GnTI- cells, BacMam virus (pVLAD8L), secreted, purified (Ni2+-NTA, 3C cleavage, SEC); not shown: Fc, C-terminal, cleaved
T1 sequence (looked up): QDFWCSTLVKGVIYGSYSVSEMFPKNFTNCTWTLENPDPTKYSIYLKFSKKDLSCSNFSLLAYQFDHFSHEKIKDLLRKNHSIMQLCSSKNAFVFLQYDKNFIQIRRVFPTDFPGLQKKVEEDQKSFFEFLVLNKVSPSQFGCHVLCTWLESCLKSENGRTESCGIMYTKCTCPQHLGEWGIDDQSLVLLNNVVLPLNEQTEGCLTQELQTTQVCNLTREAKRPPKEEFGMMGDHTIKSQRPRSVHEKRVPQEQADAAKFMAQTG
As to the kind of experiment: SEC; purified proteins mixed, size-exclusion chromatography and Coomassie-stained SDS-PAGE of fractions; 1x HBS (10 mM HEPES pH 7.2, 150 mM NaCl) with 2 mM CaCl2. To be noted: both partners purified. For orientation: SEC sorts molecules by how far they enter the pores of the column.

B1: C1ql3 globular C1q-like domain (residues 122-255) (domain or fragment, mouse, UniProt Q9ESN4 122-255, looked up)
chain: STVPKIAFYAGLKRQHEGYEVLKFDDVVTNLGNHYDPTTGKFTCSIPGIYFFTYHVLMRGGDGTSMWADLCKNNQVRASAIAQDADQNYDYASNSVVLHLEPGDEVYIKLDGGKAHGGNNNKYSTFSGFIIYAD
notes: C1q-like 3 protein (C1ql3), mouse, C1q-like domain, residues 122-255; buffer contained 2 mM CaCl2; The tag is surmised from the Ni-NTA step; also called C1q-like domain trimer of C1ql3; C1ql3 C1q-like domain; source: Expi293F GnTI- cells, transfected (pEG BacMam), purified (Ni2+-NTA, SEC)
As for B1, the binding result is “binds”.
